Test results published in patent US20150246949A1, “Desmoglein 2 (DSG2) Binding Proteins and Uses Therefor” (UNIVERSITY OF WASHINGTON THROUGH ITS CENTER FOR …, priority 2012, published 2015).

Biological target: T1, soluble recombinant DSG2 (Homo sapiens, UniProt Q14126)
T1 construct: purchased Leinco Technologies, Inc. (St. Louis, Mo.)
T1 sequence (Q14126 50-609 limits assumed): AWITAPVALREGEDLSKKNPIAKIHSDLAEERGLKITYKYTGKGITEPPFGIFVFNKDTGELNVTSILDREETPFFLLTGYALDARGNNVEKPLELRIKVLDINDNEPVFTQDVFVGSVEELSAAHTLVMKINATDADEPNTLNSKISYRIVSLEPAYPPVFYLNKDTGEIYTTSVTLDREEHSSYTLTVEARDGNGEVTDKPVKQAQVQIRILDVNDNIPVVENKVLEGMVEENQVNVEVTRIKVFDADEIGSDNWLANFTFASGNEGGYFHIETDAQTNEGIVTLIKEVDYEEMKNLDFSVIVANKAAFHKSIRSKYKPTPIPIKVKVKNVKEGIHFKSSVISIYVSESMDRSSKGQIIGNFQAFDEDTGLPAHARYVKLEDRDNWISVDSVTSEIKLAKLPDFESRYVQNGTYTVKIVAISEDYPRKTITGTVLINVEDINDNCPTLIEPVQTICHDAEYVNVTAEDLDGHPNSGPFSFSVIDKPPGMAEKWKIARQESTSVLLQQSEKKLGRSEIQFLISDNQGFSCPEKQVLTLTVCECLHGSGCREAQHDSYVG
Experiment: Western blot of dimeric Ad3 fiber knob mutants probed with soluble DSG2
Assay type: binding
Conditions: purified dimerized knob mutants
From the text: FIG. 1. Residues found to be critically involved in binding to DSG2. A) Shown are the amino acid sequences of the Ad3 and Ad14p1 fiber knob. Beta sheets present in the Ad3 knob (PDB accession number 1H7Z_A) and Ad14 knob (PDB: 3F0Y_A) are indicated by lines. Black arrows indicate residues within the Ad3 fiber knob which, when mutated individually, ablate or reduce binding to DSG2. […] B) Schematic structure of dimeric Ad3 fiber knob mutants. The fiber knob domain and one shaft motif was fused through a flexible linker to a homodimerizing K-coil domain (41). The proteins are self-dimerizing and can be purified by His-Ni-NTA affinity chromatography. C-F) Analysis of binding of dimeric Ad3 fiber knob mutants to soluble DSG2. C and D) Coomassie staining. 10 μg of purified Ad3 fiber knob (unboiled) were loaded per lane. Trimeric forms of the fiber knobs are indicated by an arrow. The gel contained SDS and the loading buffer containing DTT, which caused the disassembly of dimers of trimeric fiber knobs as previously reported (41). E and F): Western blot using soluble recombinant DSG2 as a probe, followed by anti-DSG2-mAb and anti-mouse IgG-HRP. For comparison, JO-1 (0.5 μg/lane) is shown. The Western blots were scanned and signals were quantified.
Mini-PROTEAN precast gels (BIO-RAD, Hercules, Calif.) with 4-15% gradient polyacrylamide were used. A total of […] protein mixed with 2× loading buffer (10 mM Tris-HCl, pH6.8, 200 mM DTT, 4% SDS, 20% glycerol, 0.2% bromophenol blue) was loaded per lane. Samples were either boiled (B) for 5 min or loaded unboiled (UB). The following running buffer was used: 25 mM Tris, pH8.3, 0.192 M glycine, 0.1% SDS. After electrophoresis, proteins were transferred to nitrocellulose and incubated with recombinant human DSG2 protein and anti-DSG2 antibodies as described previously (42). The Western blots were scanned and quantified using the ImageJ 1.32 software (National Institutes of Health, Bethesda, Md.). JO-1 band intensity was set as 100%. […]

B1: D261N (protein)
chain: MKVSALKEKVSALKEKVSALKEKVSALKEKVSALKEGSGGGSGGGSGGGSNSIALKNNTLWTGPKPEANCIIEYGKQNPDSKLTLILVKNGGIVNGYVTLMGASDYVNTLFKNKNVSINVELYFDATGHILPDSSSLKTDLELKYKQTADFSARGFMPSTTAYPFVLPNAGTHNENYIFGQCYYKASNGALFPLEVTVMLNKRLPDSRTSYVMTFLWSLNAGLAPETTQATLITSPFTFSYIREDD
DSG2 binding in Western blot compared to JO-1: almost completely ablated for DSG2 binding
